# Measurements taken from publication PMC6859792.
# Tested on: O=P(O)(O)O[C@H]1O[C@H]([C@H](O)CO)[C@@H](O)[C@H](O)[C@@H]1O
# Assay: purified protein
# Conditions: pH 7.4, 25 °C, GTP 1.0 mM, MgCl2 2.0 mM, pyrophosphatase 1 U
substance,measurement,value
Cj1423 (Campylobacter jejuni subsp. jejuni NCTC 11168 = ATCC 700819),Km,495 ± 65 µM
same,kcat,1.35 ± 0.04 s⁻¹
same,kcat/Km,2700 ± 400 M⁻¹ s⁻¹
